The target in the series is hnRNP A1 spin-labelled at 231 (Homo sapiens, UniProt P09651-2 1-320, M1G;C43S;C175A;S231C). Description: CW EPR.

Take CCAGCAUUAUGAAAAUGA (ssRNA) [RNAga (3' AG motif mutated)]: the binding result is “binds”.

For the origin of these results see doi:10.1101/2022.03.21.485092.
